# Data taken from the supplement of paper PMC7125110.
# ± gives the standard error. This sample holds only a part of the variants without activity.
# B1: glmS ribozyme (parent)
# chain: AUAAAAGCGCCAGAACUACAGAAAUGUAGUUGACGAGGAGGAGGUUUAUCGAAUUUUCGGCGGAUGCCUCCAAA
# Variants of: B1
# Assay: self-cleavage kobs at 10000 uM GlcN6P; higher = faster cleavage; RNA array
# Conditions: with glucosamine-6-phosphate
# Summary of the method: (§1)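 Tiles of sequenced MiSeq chips were imaged over ~14 h at 37 °C. On them, barcoded ribozyme variants had been transcribed in situ by E. coli RNA polymerase and were tracked via a hybridised Cy3 probe while glucosamine-6-phosphate (40 μM to 10 mM) in HEPES/KCl/Mg(OAc)2 buffer flowed in. Per-tile medians, normalised to baseline and to non-cleaving reference variants, were fit to one- or two-exponential decays for kobs, and weighted Michaelis–Menten fits gave kcat and KM.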
row,Variant,self-cleavage kobs at 10000 uM GlcN6P [s⁻¹]
1,A6U G59A U69G,< 1e-05
2,A14C G44A U45A,7.22e-05 ± 2.3e-05
3,G37U C58G,< 1e-05
4,A36U G59U G60C,< 1e-05
5,A14G C16A G29C A53G,0.000885 ± 0.00021
6,U54A C67U C70A,4.02e-05 ± 1.6e-05
7,C8U A15C G32U A36U A39C A48U,< 1e-05
8,A33U A42C U49A C58G C61G,< 1e-05
9,C11U G60A C68G,5.38e-05 ± 1.9e-05
10,U47A C67U C71U,0.000453 ± 0.00017
11,A14G U47C U56G,0.0112 ± 0.0019
12,A6G G7A C16G U47A A53C C58A,< 1e-05
13,U30C G35U G43U G66U,< 1e-05
14,C8A C50G U54G C68U,6.41e-05 ± 2.3e-05
15,A52U A53C G62C,< 1e-05
16,A42G U55C G60A,4.43e-05 ± 1.7e-05
17,U30G A42U,3.53e-05 ± 8.7e-06
18,G43C U45G A48U C50U C58U C67U,< 1e-05
19,G13U C16U A53U G62U,< 1e-05
20,A42U C58U G59U U65A C70G,< 1e-05
21,G7A C34U U57A,< 1e-05
22,A14U A52C U57A C71U,< 1e-05
23,C16G A36C C58U C70G,4.92e-05 ± 2.2e-05
24,C8U A12U A42C C70U,< 1e-05
25,A14C A36G G51U,< 1e-05

row,Variant,self-cleavage kobs at 10000 uM GlcN6P [s⁻¹]
1,G13C A36G G51A U55A,< 1e-05
2,G7C U49A C50U A53U U54C C68U,< 1e-05
3,G9A G29A G40U G51A,< 1e-05
4,C11A G44U C67U,4.33e-05 ± 2.1e-05
5,A15G G29A G32A A64G,0.000605 ± 0.00015
6,U47A A53U C58A,0.000151 ± 3e-05
7,A14C U54G C70A,7.96e-05 ± 1.8e-05
8,G40U A48G C70A,3.93e-05 ± 9.6e-06
9,A33C G43A G44C C61A C67U,< 1e-05
10,C8U U45G C50U U65C,< 1e-05
11,C11A A14G C34U G66C,< 1e-05
12,A42U G44C G62U C70G,< 1e-05
13,G29C U31C G66A,0.000105 ± 2.5e-05
14,A14C U55A C71U,0.00514 ± 0.0013
15,U49C C50U U56C,< 1e-05
16,C11U G29U G40U G62U,< 1e-05
17,G9U A33U G40A C58U,< 1e-05
18,A15G U46G C67G,0.000339 ± 6e-05
19,G40A C58A,7.56e-05 ± 1.6e-05
20,A36U A42U C61U,< 1e-05
21,U46G C50G C67G,< 1e-05
22,A6C U47G U49C C67U,< 1e-05
23,A39G U65G C70U,0.0203 ± 0.0059
24,A15U A39G U57C,6.65e-05 ± 1.8e-05
25,U54C G66C,0.00113 ± 0.00015

row,Variant,self-cleavage kobs at 10000 uM GlcN6P [s⁻¹]
1,G59A C68G C70U,< 1e-05
2,G9C G13C A14U U31A A48G C61A,< 1e-05
3,A15U G40U U54A,7.33e-05 ± 1.6e-05
4,G35C C50G A53C,3.34e-05 ± 8.6e-06
5,G7U A12U G35U G51U G66A,< 1e-05
6,A15G G32U G43U C61G G63U A64G G66A,< 1e-05
7,U54A G66A C68A,9.65e-05 ± 1.7e-05
8,C8A A14G C70G,< 1e-05
9,C34A G51A C67G C70A,< 1e-05
10,G13A A39G C67U,0.000112 ± 2.2e-05
11,U45C U65G C67U,0.000112 ± 2.2e-05
12,U47C A53U C68G,3.22e-05 ± 1.4e-05
13,C16A U30C A53C C70G,< 1e-05
14,A14U A48C U55A,3.3e-05 ± 1.5e-05
15,G7U A12C U45C,< 1e-05
16,G32U A53G U65A,5.88e-05 ± 1.9e-05
17,C16A C34A U65A,< 1e-05
18,A6C U31G G40C,< 1e-05
19,G9A U30C G35U U55G,< 1e-05
20,G41C C58A C61U,< 1e-05
21,C11U U57C,5.06e-05 ± 1.6e-05
22,G44A U46G U54G,0.000373 ± 0.0001
23,A12C C16U A53C G63A,< 1e-05
24,A15C C16A G37U G40U G62U C70A,< 1e-05
25,A12U U31G U55C U65A,0.0008 ± 0.00013

row,Variant,self-cleavage kobs at 10000 uM GlcN6P [s⁻¹]
1,U46G C68U C71U,8.22e-05 ± 1.3e-05
2,G38C U45C U49A A53U,< 1e-05
3,G32A G37C G40A,< 1e-05
4,G13U C16U U31A A33U G35C,< 1e-05
5,A48U G59U C68A,< 1e-05
6,C8G A15G G37C U49G,< 1e-05
7,A15C C16G G37C C58A G63C,< 1e-05
8,C16A U30G C34U,< 1e-05
9,G9U A12G G37U,< 1e-05
10,U31A A39G U55C,0.0297 ± 0.011
11,G7U G32U U54C C68G,< 1e-05
12,C8U C61U C68G,0.000133 ± 4.3e-05
13,C10G A14G,3.42e-05 ± 7.2e-06
14,G35C C50A G51A,< 1e-05
15,U31G U54C C70G,0.000117 ± 2.3e-05
16,G44C C70U C71A,< 1e-05
17,G21U G41C C70U,0.000298 ± 8.1e-05
18,G29U U56C,0.000483 ± 0.00016
19,U54A C58U,6.81e-05 ± 1e-05
20,A14G A15G U47C U55A C70G,0.000483 ± 0.00014
21,A12U A42G C58G,0.00079 ± 0.00015
22,G13U U30A C58U G59U,< 1e-05
23,G29U U46G C68U,0.000229 ± 4.1e-05
24,G13A A36C G38U,< 1e-05
25,G13U U46C,3.18e-05 ± 1.1e-05

row,Variant,self-cleavage kobs at 10000 uM GlcN6P [s⁻¹]
1,A12G G37A G43A A52G,< 1e-05
2,C11G G13U C61G,< 1e-05
3,A15U G38U U57C C61U,< 1e-05
4,U55A C58U U65C,< 1e-05
5,C8G G9A G35A A36U,< 1e-05
6,C16A G43A G44A A48U,< 1e-05
7,G29C G44A C58G,< 1e-05
8,A12U A14G G41A A42G,0.000918 ± 0.0002
9,C50G U54C C71U,4.14e-05 ± 1.5e-05
10,C10U U49G C58G,< 1e-05
11,C34A G43A U49G C70G,< 1e-05
12,A39G A53C C71A,0.00202 ± 0.00063
13,U46A A48G,3.66e-05 ± 1.3e-05
14,A12G U46C,0.000349 ± 5.9e-05
15,G32U G41A A53G,0.000262 ± 6.5e-05
16,G51C G60U C71A,< 1e-05
17,C19U C68U,0.00423 ± 0.0011
18,A39G G60C C70U,< 1e-05
19,C16U G41U U47A,0.000489 ± 7.1e-05
20,A14G U31G C67U,0.00162 ± 0.00041
21,A14G A39G G44C C68U,3.6e-05 ± 1.5e-05
22,A15U C50U C61G A64G,< 1e-05
23,A36U A39C U65C,< 1e-05
24,C10A U45A U46C C70A,< 1e-05
25,C11A C58A G59A,6.59e-05 ± 1.3e-05

row,Variant,self-cleavage kobs at 10000 uM GlcN6P [s⁻¹]
1,A33G A42G G59U C61A,< 1e-05
2,G37A G44A,2.6e-05 ± 1.2e-05
3,A14U A42U U57C,< 1e-05
4,C10G C50U G62U C70G,< 1e-05
5,C16A U31C G41C C68A,< 1e-05
6,G7U C8A G9U U31C A33U,< 1e-05
7,A15C U31A G38C G41C,< 1e-05
8,A48C C58A C61U,< 1e-05
9,A42C G44C G51U G66A,< 1e-05
10,G9U A42U U55G,< 1e-05
11,C11U A15G U31C C67G,6.25e-05 ± 1.8e-05
12,A15C A64G C67G C68U,< 1e-05
13,A12G U46A C71G,3.42e-05 ± 1.3e-05
14,C8U U30G G43C,< 1e-05
15,A33C G44C G60A,< 1e-05
16,A15G A33G G59U,< 1e-05
17,U31C G40U G66A,0.00025 ± 7.4e-05
18,U31A G32A G62U,< 1e-05
19,A6C A48U U54A C67U,< 1e-05
20,G7A U30G A33G U69G,0.000162 ± 2.9e-05
21,U49G C61G,< 1e-05

# Variants of: B1
# Assay: self-cleavage kobs at 2500 uM GlcN6P; higher = faster cleavage; RNA array
# Conditions: with glucosamine-6-phosphate
# Summary of the method: as §1
row,Variant,self-cleavage kobs at 2500 uM GlcN6P [s⁻¹]
1,A6C A36G C61G G66A,< 1e-05
2,A12G A39C A42U,3.14e-05 ± 1.5e-05
3,U57C G60A G66C,< 1e-05
4,A36G G60U G63A C68A,< 1e-05
5,C16A C34A U65A,< 1e-05
6,C8G U69G,< 1e-05
7,G29C G40A A42U G60U C61U,< 1e-05
8,C16G A36G U69G,4.76e-05 ± 2.4e-05
9,A6G G51U C58U,< 1e-05
10,U31C A48G G63C C67U,< 1e-05
11,A6G G9U G29U G37A U46C U56C,< 1e-05
12,G7U G32U U54C C68G,< 1e-05
13,G7C G32U U45C U49C,< 1e-05
14,A15G A39U G40A C61A,< 1e-05
15,C8U C58G C70U,< 1e-05
16,G13A U30A G32U,7.99e-05 ± 1.7e-05
17,A6C C10U G37U C50G U54C C70A,0.000151 ± 3.4e-05
18,C16U A48G A53G,9.32e-05 ± 2.7e-05
19,C8A G38A G63U C68U,< 1e-05
20,A14U C16G G38C G41C U47G,< 1e-05
21,G7A U31A G44C,< 1e-05
22,A6U G32C C34U,< 1e-05
23,U31A A36G G63A A64U C71U,< 1e-05
